{
  "source": "paper PMC10391570",
  "about": "(Cell Reports Methods, 2023)",
  "experiment_in_all_cases": "ELISA",
  "key": {"Der p2": {"molecular_target": "Der p2 (Dermatophagoides pteronyssinus, UniProt P49278, biotin (Biotin Conjugation Kit, Lightning-Link))", "sequence (P49278 18-146)": "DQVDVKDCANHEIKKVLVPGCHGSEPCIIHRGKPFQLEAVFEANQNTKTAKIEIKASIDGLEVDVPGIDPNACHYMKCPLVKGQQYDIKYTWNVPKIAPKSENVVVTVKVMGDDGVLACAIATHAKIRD"}, "Ole e1": {"molecular_target": "Ole e1 (Olea europaea, UniProt P19963, biotin (Biotin Conjugation Kit, Lightning-Link))"}, "Der p1": {"molecular_target": "Der p1 (Dermatophagoides pteronyssinus, UniProt P08176, biotin (Biotin Conjugation Kit, Lightning-Link))", "sequence (P08176 99-320)": "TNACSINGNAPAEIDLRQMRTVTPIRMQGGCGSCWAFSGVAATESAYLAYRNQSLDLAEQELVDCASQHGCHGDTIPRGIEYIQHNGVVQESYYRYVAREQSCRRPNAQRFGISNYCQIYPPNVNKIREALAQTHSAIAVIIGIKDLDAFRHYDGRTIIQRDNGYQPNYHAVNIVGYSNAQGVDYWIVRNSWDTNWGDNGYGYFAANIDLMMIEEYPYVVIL"}, "Der f1": {"molecular_target": "Der f1 (Dermatophagoides farinae, UniProt P16311, biotin (Biotin Conjugation Kit, Lightning-Link))", "sequence (P16311 99-321)": "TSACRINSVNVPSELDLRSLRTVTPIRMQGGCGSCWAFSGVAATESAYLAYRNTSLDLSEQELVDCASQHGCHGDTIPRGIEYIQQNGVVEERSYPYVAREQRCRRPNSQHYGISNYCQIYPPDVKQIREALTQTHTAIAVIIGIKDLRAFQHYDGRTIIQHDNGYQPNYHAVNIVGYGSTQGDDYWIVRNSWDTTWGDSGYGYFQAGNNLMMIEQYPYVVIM"}, "Fel d1": {"molecular_target": "Fel d1 (Felis catus, UniProt P30438;P30440)", "sequence (P30438 23-92, chain 1 of 2)": "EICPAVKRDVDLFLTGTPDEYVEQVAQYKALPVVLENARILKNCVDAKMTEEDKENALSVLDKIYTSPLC", "sequence (P30440 18-109, chain 2 of 2)": "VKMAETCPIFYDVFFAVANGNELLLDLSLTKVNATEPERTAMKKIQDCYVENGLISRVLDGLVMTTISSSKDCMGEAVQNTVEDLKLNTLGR"}},
  "data": [
    {"binder": "IgE mAb 8_2 (antibody, V domains shown) VH: QVLLKESGPGLVAPSQSLSITCTVSGFSLTSYGVSWVRQPPGKGLEWLGVIWGDGNTDYHSALISRLSIRKDNSKSQVFLKLNSLQTDDTATYYCAIGSPFAYWGQGTLVTVSA VL: DVLMTQTPLSLPVSLGDQVSISCRSSQNIVHSTGNTYLEWYLQKPGQSPKLLIFKVSNRLSGVPDRFSGSGSGTDFTLNISRVEAADLGIYSCFQGSHVPFTFGSGTKLEIK", "values": [
      {"measurement": "binding result", "setting": "Der p2", "value": "binds"}
    ]},
    {"binder": "IgE monoclonal antibody mAb12_2 (antibody, V domains shown) VH: QAYLQQSGAELVRPGASVKMSCKASGYTFISYNMHWVKQTRRQGLEWIGAIYPGNGDTSYNQKFKGKATLTVDKSSSTAYMQLSSLTSEDSAVYFCARWDYYGSSYGAYWGQGTLVTVSA VL: DIQMTQSPASLSVSVGETVTITCRASENIYSNLAWYQQKQGKSPQLLVYAATNLADGVPSRFSGSGSGTQYSLKINSLQSEDFGSYYCQHFWGTPWTFGGGTKLEIK", "values": [
      {"measurement": "binding result", "setting": "Ole e1", "value": "binds"},
      {"measurement": "binding result", "setting": "Der p1", "value": "binds"},
      {"measurement": "binding result", "setting": "Der p2", "value": "binds"},
      {"measurement": "binding result", "setting": "Der f1", "value": "binds"},
      {"measurement": "binding result", "setting": "Fel d1", "value": "no binding"}
    ]},
    {"binder": "IgE mAb1_2 (antibody, V domains shown) VH: QIQLVQSGPELKKPGETVKISCKASGYTFTTYGMSWVKQAPGKGLKWMGWINTYSGVPTYADDFKGRFVFSLETSASTAYLQINNLKNEDTATYFCARAYYYGSSYLIWYFDVWGTGTTVTVSS VL: NIVLTQSPASLAVSLGQRATISCRASESVDSYGNSFMHWYQQKPGQPPKLLIYLASNLESGVPARFSGSGSRTDFTLTIDPVEADDAATYYCQQNNEDPYTFGGGTKLEIK", "values": [
      {"measurement": "binding result", "setting": "Der f1", "value": "binds"}
    ]},
    {"binder": "IgE mAb 21_2 (antibody, V domains shown) VH: QVQLQQSGPELVKPGASVKISCKAPGNAFSYSWMNWVKQRPGKGLEWVGRIYPGDGDTNYNGKFMGKATLTADKSSNTAYIQLSSLTSEDSAVYFCARSGGGTLYWYFDVWGTGTTVTVSS VL: DIVMTQSPSSLALSVGQKVTMNCRSSQSLLNSFNQKNYLAWFQQKPGQSPRLLIYFASTRESGVPDRFIGSGSGTDFTLTISSVQAEDLADYFCQQHYNTPLTFGAGTTLELK", "values": [
      {"measurement": "binding result", "setting": "Der p2", "value": "binds"}
    ]}
  ]
}
